The numbers were not newly measured in PMC3089900, which cites them from elsewhere.

The target of this data set is His276 (UniProt position 276, SEELDHALNDM). Description: NMR. Conditions: in the presence of troponin T fragment TnT1.

As for “alpha-tropomyosin (striated muscle alpha-Tm) (Oryctolagus cuniculus (inferred; the article's alpha-Tm sequence discussion and preparations are rabbit))”, the pKa is 7.27−7.98.
